We go through 2 molecules from publication PMC4538836, “Human DNA ligase III bridges two DNA ends to promote specific intermolecular DNA end joining”.

The target in data set [1] is T1, DNA ligase III beta (LigIII) (Homo sapiens, UniProt P49916-4 1-862).
T1 sequence: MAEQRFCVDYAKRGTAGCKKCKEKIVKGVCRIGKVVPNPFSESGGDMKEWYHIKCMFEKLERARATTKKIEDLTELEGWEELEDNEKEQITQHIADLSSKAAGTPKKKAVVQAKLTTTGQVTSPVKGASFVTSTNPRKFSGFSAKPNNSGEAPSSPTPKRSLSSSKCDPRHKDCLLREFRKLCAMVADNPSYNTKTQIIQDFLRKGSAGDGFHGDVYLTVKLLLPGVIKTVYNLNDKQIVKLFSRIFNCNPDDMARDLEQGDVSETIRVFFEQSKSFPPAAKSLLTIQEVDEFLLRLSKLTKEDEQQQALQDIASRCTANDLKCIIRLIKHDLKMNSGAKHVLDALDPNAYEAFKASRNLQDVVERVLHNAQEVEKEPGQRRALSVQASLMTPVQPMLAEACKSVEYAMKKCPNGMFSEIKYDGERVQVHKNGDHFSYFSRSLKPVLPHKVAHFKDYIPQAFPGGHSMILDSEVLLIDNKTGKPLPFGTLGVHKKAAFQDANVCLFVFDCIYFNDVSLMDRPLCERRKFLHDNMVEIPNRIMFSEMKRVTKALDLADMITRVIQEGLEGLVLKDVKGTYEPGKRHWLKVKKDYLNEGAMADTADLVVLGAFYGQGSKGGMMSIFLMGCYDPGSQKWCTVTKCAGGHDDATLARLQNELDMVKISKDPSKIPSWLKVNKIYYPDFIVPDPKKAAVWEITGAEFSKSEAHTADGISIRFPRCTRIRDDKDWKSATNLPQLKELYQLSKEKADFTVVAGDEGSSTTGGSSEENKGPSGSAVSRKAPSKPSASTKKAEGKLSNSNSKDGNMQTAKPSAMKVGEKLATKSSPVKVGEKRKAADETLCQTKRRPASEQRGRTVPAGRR
Briefly: TR-FRET; DNA bridging; 5 mM Mg2+, 1 mM ATP; 50 mM HEPES-NaOH pH 7.5, 80 mM NaCl, 5 mM MgCl2, 1 mM DTT, 1 mM ATP, 50 ug/ml BSA; anisotropy 25 C (25 nM DNA), TR-FRET room temperature, pull-down 4 C. The following applies: protein: recombinant; tags: N-terminal His (pQE32); label: 5'-biotin on S1; 5'-FITC on S3; two blunt duplexes. In general terms: TR-FRET usually uses a lanthanide donor and a delayed reading to cut background.

Data set [2] addresses T1, DNA ligase III beta (LigIII). Briefly: fluorescence anisotropy; stoichiometric titration, 1 LigIII : 2 DNA; 50 mM HEPES-NaOH pH 7.5, 80 mM NaCl, 5 mM MgCl2, 1 mM DTT, 1 mM ATP, 50 ug/ml BSA; anisotropy 25 C (25 nM DNA), TR-FRET room temperature, pull-down 4 C. The following applies: protein: recombinant; tags: N-terminal His (pQE32); label: 5'-FITC on strand 1; blunt. (Fluorescence polarisation rises when a labelled molecule tumbles more slowly, as on binding a larger partner.)

B1: bridged pair, blunt ends (dsDNA)
DNA 1: AGTGAATTCGAGCTCG
DNA 2: CGAGCTCGAATTCACT
DNA 3: CATGATTACGG
DNA 4: CCGTAATCATG
On to B1, for which, in data set [1], the binding result is “binds”.

B2: FITC blunt duplex (dsDNA)
DNA 1: CATGATTACGG
DNA 2: CCGTAATCATG
With B2, in data set [2], the binding result was “binds”.
